Assay: soluble on expression in E. coli; label from the status in PepcDB or PDB records

MIRLILILINILFCHYLYALDCQKRLFDISINEKLSIQESLDELAKYCSFSIIVKDKIAKEKLETLQNSVNIHQMSLDEIFNFFIKEHDLSYDFDGKILRISGINTKIFKISYITSIREGQSITKASVDAKPRQSEYSGSFDDAEDNMIKSMEKFDFWQNIEKEIIVLLKNSHEDYEAKTPIINPNAGLIIVTGTNSQLKSVKNYLQKLENRLKKQVIIDVSILAVSLNESHSSGINWQNFNIGLNSQVNNENSFIQFQNGQGFVKNLGLRANLNFDSIINFLSQNGKTSVLSNPKLMALNNQQAIISVGDTINYQVKESSKGTENGTTVSESYNNYSIFVGILLNILPEISDDGKIMLRINPSLSDFKYPEDNKRQKEPRTIAPDTIQKKLSSVVQVENNQTLILGGLISHDKSNEKNSINFLSKIPILGSLFKGEVLNSKATEIVFIITPSIVDSVNAPSLKDLGFKHYELEHHHHHH
soluble on expression in E. coli: not soluble

MDEIAIDPSINQDMSASEIYRFEGTLYTLPFVTKNNDISWNKSRDEYKSECRTFPPLYKSLFDRQKCGKVRFSPPLSLEQNVNAHLKGSSSQHMTTILQGVEDAGYVFPDIDMLVTTEVLNTIAGSIFNQEKSWKLRAYVTQVQGKNMVIVCDDDFEHHQRISSTQSDFPIERTEALNFAHSICVRDGTRELNNSLHGSEVVVSTIKFREKSVKMIVIGEVDLVTGKNNKSLNTIVATGRTARASFGHNVESRVDSLDYLWSRCFWLGQRLCLVGMRSTEEAPVSSAYLYSLYPPTLKERKRTNYRVDVATTCVAQVMIRLREEAAKMPHANWIIEYTGRDKEFDPAFIKINVAPDTHSFLLVQEYWHIEKEAFESAEEQKKAEDQNVVEPEKIVRTFHQMKRLPGVRKSGTIAKQFQKIINSMSS
soluble on expression in E. coli: not soluble

MMTTSLFNNDDLNQLESKGITPEEAMRQVEALRYGFPYPNIIAPASLENGIMRLDEDDKSAYLLEWDRYLNSPNCNVVKFVPASGAASRMFKDLYNFLDADYNEPTTDAEKAFFAHLTRFAFYDSLNETCLRNAWRTVPKLIASKEYKTVVENLLYPKGLNYGNLPKGLLLFHLYGKETRTPTEEHLAEGALYERSGTRQVKVHFTVSPEHIEEFKNNIDKRQRFLEDEYCIRYEVSFSVQDSSTDTLALTPEGELFRLENGELLFRPGGHGALIRNLQETNADIVFIKNIDNVVPDFLKCDTIIYKKLIAGVLVKAREHIFNYLQLLEKPKVVHAQLMEIVDFLRYNFCIEISNIDLMEDKDLLELLRRKLDRPIRVCGMVRNQGEPGGGPFIIREADGSSSLQILESTQIDMSDPQKRAIFEQGSYFNPVDLVCSLRDYKGEPFNLESFVNPKTAFISEKSKDGRKLLALERPGLWNGAMDDWNTIFIEVPISTFAPVKTVNDLLRPEHQPCQS
soluble on expression in E. coli: soluble

MKTLYDKLWSDHVVHAESDDPNGMVILYIDRHLVHEVTSPQAFESLKLAGRKPWRTGSILAVADHNVPTTDRSSGISDPVSRLQVETLDQNCEEFAITEFRMNDERQGIVHVIGPEQGATLPGMTVVCGDSHTSTHGAFACLAFGIGTSEVEHVLATQCLVARKSKTMLVRVEGDLPPGVTAKDIALAVIGEIGTAGGTGYAIEFAGSAIRSLSMEGRMTLCNMAIEAGARAGMVGADEVTIDYIKGRPFAPQGALWDQAVAYWRTLKSDEDAVFDRMVELKAVNIKPQVTWGTSPEMVTTVDGYVPDPADISDPTKRHDVEHALGYMGLKPKMPIQEITLDKVFIGSCTNSRIEDLRAAAEIVKGKRIAPNIRLAMVVPGSGLVKSMAEKEGLDKIFLSAGFEWREPGCSMCLAMNDDRLLPGERCASTSNRNFEGRQGPGGRTHLVSPAMAAAAAIAGHFVDVRSFIR
soluble on expression in E. coli: not soluble

MHDEQFCVGYNFLEAEDTFREDGLEPVTLAIHGTPEVLQLLGNKPLNWDGPISFGLFVDFHSQKALNYISMLHKCDAAFKRQMTVHFAFRISPSQSECPMIQVLGYQDCATFLQKSKQLLEEIEDSFQIYPINLMRNIARRGAKSDLHLIIDTDMMMSTNFAKMVKPIANRMIDGKNKQVLVVRRFETNENELPMSFGDLEEGIENHKTFQFHHKFFFVGHQIPNLMEWFERSHASNDVVAWEIPYTGNDWEVQIILHRNDPYNVEYFPSRVKDMQSLIYKLCRANYTFNLLSHVFNVHKGIKEDDTMYSKVVTAHTKRQGRLRTLSRYVTEIDRKYPDTMKRCGQFLL
soluble on expression in E. coli: not soluble

MSLKLHHLNDSRSFRILWLLEEIGQPYEIIRYQRDKETHLAPETLKDIHPLGKSPVIELDGKIIAESGSITEVLIKEFAPHLAPNEKSPEYIDYLQWIHFSESSAMLPLLLKIFNEFETRSGTDLKFLKNYAEIEFNKVFSYLNNHLNNKKFLVEDRLTGADFMLGFVVKGALNLLKSSGAFPHIESYITNIENQISYKRALDIDANEGHHHHHH
soluble on expression in E. coli: soluble

MLQYRIIVDGRVQGVGFRYFVQMEADKRKLAGWVKNRDDGRVEILAEGPENALQSFVEAVKNGSPFSKVTDISVTESRSLEGHHRFSIVYS
soluble on expression in E. coli: soluble

MAHHHHHHMFYLFDEKAMSTNIKVKSVKRLVYNRHIKGDEAVLSLDLSYDMSKAFNWNLKQLFLYVLVTYETPEKVKNEVIIQDYIITNKNVAKRTYKNFITKYSLKDYNNGLRNNNINLQVCYKYMPIVGLSRSYEGTKISYKLPAEYFDNLPSNYPLYYPDK
soluble on expression in E. coli: not soluble

DLQTLLDKSFNLIISTLDAKYCKILKLLNDGNFLVEAGVGWKPEDTGKVIKREEASVAGYTVLSKKPINIEDLDKKGSIERMGLYGYSEITHGISVLVGSLEKPYGVLAVHSTRKEKFTKEDACFLKGIASMLSLALERNKVESTL
soluble on expression in E. coli: not soluble

MFSLLRKSLKSPAPKKVVPSQRTVSVAGRQVPITVRENPRATRITLRIEPGGRALKLTIPMGLHHRQVDDFLERHQGWLEGKLLKFSPDDGLRPGATIDIRGISHRIEHTGSLRGLTHIAKDADGVAVLKVSGAPEHLRRRIATFLKKEAKADLERLVAIHGRAAGRPVRSISMKDTRSRWGSCSHDGNLSFSWRIVMAPDRVIDYLAAHEVAHLSEMNHGPKFWALCEKLCPHTSEAKDWLKRHGSKLHAIDFDLEHHHHHH
soluble on expression in E. coli: not soluble

GPGSMPASASTRTVGDSSKNASTSSVTNAVKDPNVTLSRADVEAAFAFFDLHNHKCLKPATLKERLSAFYPNMTSSEYKFLLDEASGAPFTVDTLWNIIDNFNTTRTAMPPAVAGSLRFDPIREAFRIYDPQGSGSVDVVVLADIMKTIGFGDLSPNELTLLIRPADFDNDGKISLEDFMNFLSNHR
soluble on expression in E. coli: soluble

MGSDKIHHHHHHMKLIWLGHGGFRLETGETTLLIDPWLTGNPMLEDSQHDAATQGATHILLTHAHFDHVADVLELAKHLSVPIVGQYDLMGYWGETEGVQTVGFNKGGTVTVGDTRVSMVPASHSNTFSTRDGLRTAGSEVGYMIRAEGKTLYVSGDTDIMADMDWMGDYYKPEIGILSAGGHFTMDMKAAAYAAQRYFAFKTVIPCHYRTFPLLEQSAQDLIDGLPGVNVIEPQIMKDIEL
soluble on expression in E. coli: not soluble

MSISQNNFLTMFPVTYTFENGVYSTIINQNTIQTPIPNPIQHHIQNHIQTSIPNTNLLLENVQTDVQKLMVPLIDQQFHIPTSTPLQLAPIPTQIQSQLQPQISQIPIHNQPQIQIQSQVQPQLPTQSQPKPSSKASLDTSSNAFKKYVNPFAPEATVPLPVELEDQYGPYSSSVWKRNERERCRVRNVNDGYERLRKHLPVHFDEKRISKVDTLRLAIRYIKHLDNLLRSELHQYNCKCFNGFQEESEGNILIDISTFNFNSSNNAM
soluble on expression in E. coli: not soluble

MGSDKIHHHHHHENLYFQGMRFLAYFGHLNIDVLISVDSIPREGSVNVKDLRPRFGGTAGNFAIVAQKFRIPFDLYSAVGMKTHREYLAMIESMGINTGHVEKFEDESGPICYIATDGKKQVSFMHQGAMAAWAPQLADEYEYVHFSTGPNYLDMAKSIRSKIIFDPSQEIHKYSKDELKKFHEISYMSIFNDHEYRVFREMTGLSSPKVTTIVTNGERGSSLFMDGKKYDFPAIPSSGDTVGAGDSFRAGLYLALYNRRSIEKGMIYGTIIAHHVIDDGIENFSLNMEDLERETENYRRMFTKRS
soluble on expression in E. coli: soluble

FVVAFLCNWCSYACADLTGMSRIHYPTNIRVIRTMCSARINPEFVLEALKGGADGVLVAGCRMDECHYIHGNFDAKKRMDVLKEIIKEIGLDPKRLRTLWISAAEGERFSNTITEFVKELEEIGPIGSELKREYTATGLEEVAK
soluble on expression in E. coli: not soluble

MEWYMGKYIRPLSDAVFTIASDDLWIESLAIQQLHTTANLPNMQRVVGMPDLHPGRGYPIGAAFFSVGRFYPARRRGNGAGNRNGPLL
soluble on expression in E. coli: not soluble
